Here are results for two substances from patent US20240280570A1.

Read-outs that look alike come from different tables or passages of the source.

For assay [1], the target named is MCA-SpyTag peptide.
In assay [2] the target is SARS-CoV-2 S1 (Sino Biological 40591-V08B1); Spike Protein S1 subunit residues 1 - 685(R) His tagged (SARS-CoV-2) (UniProt P0DTC2).
Assay [3] has the same target. This is another data set of the same source.
Assay [4] addresses MCA-SpyTag peptide. In words: QCM-D, SpyTag peptide on HDT-coated gold, without BSA (data not shown).
For assay [5], the target named is SARS-CoV-2 S1 (Sino Biological 40591-V08B1); Spike Protein S1 subunit residues 1 - 685(R) His tagged (SARS-CoV-2) (UniProt P0DTC2). The experiment in a line: method not stated at this place (SPR of viral targets is described in paragraph 219).
For assay [6] the target is unchanged. The experiment in a line: OECT sensor, PEDOT:PSS channel, nanobody on gate, target in buffer.
Assay [7] has the same target. This is another data set of the same source.
Assay [8] shares this target. The source holds these as a separate data set.
The target of assay [9] is SARS-CoV-1 RBD (Sino Biological 40150-V08B2); Spike Receptor Binding Domain residues R306 - F527 His tagged (SARS-CoV-1) (UniProt P59594).
Assay [10] has the same target. In words: OECT sensor, PEDOT:PSS channel, nanobody on gate, target in buffer.

What is called Kd is the concentration at which binding is half-saturated. High values mean weaker binding, low ones tighter binding.

On to “VHH72-8 aa-spyCatcher-3C cleavage site-His8”, for which the mass density bound (QCM-D) worked out at 430 ng cm-2 with MCA-SpyTag peptide [1] and 407 ng cm-2 with MCA-SpyTag peptide [4]. Further, the LOD turned out to be 1.8e-08 pM in [2], 0.019 pM in assay [3], 0.00028 pM in assay [6] and 1.2e-09 pM in [7]. Also, the molecules bound per cm2 (QCM-D) (nanobodies per cm^2) with MCA-SpyTag peptide [4] is 8.4e+12. Also, the Kd in assay [5] is 0.023 µM. The normalized response (NR) in assay [8] came out at 30%.
As to “VHH72-8 aa-spyCatcher-3C cleavage site-His8 (VHH; other documents disagree on this pair)”, the LOD in assay [9] was found to be 1.6e-05 pM; in assay [10], 0.0015 pM.
